Reference: US11827699 (dated 2023)
Read-outs that look alike come from different tables or passages of the source.

What was measured:
Assay in all cases: SPR
[1] = target: T1, human FcγRIa (human, UniProt P12314)
T1 chain: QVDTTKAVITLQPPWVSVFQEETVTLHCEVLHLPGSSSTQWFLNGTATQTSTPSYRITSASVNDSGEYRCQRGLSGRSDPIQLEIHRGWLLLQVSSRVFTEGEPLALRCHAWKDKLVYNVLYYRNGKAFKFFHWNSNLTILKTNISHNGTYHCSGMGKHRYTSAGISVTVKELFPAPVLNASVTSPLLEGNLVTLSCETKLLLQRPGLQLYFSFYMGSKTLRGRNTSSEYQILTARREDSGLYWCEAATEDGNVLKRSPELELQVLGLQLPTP

[2] = target: T1, human FcγRIa
[3] = target: T2, human FcγRIIb (human, UniProt P31994)
T2 chain: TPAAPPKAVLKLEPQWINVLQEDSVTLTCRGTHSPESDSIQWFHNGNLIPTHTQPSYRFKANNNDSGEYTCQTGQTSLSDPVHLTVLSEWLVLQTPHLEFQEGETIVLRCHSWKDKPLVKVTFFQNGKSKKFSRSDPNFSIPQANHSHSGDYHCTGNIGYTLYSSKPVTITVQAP

[4] = target: T2, human FcγRIIb
[5] = target: T3, mouse FcγRIV (mouse, UniProt A0A0B4J1G0)
T3 chain: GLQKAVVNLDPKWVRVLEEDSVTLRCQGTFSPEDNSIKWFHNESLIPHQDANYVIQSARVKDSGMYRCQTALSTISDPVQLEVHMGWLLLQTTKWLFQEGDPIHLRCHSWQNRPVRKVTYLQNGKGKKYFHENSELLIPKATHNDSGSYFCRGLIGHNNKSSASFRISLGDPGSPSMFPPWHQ

[6] = target: T4, mouse FcγRI (mouse, UniProt P26151)
T4 chain: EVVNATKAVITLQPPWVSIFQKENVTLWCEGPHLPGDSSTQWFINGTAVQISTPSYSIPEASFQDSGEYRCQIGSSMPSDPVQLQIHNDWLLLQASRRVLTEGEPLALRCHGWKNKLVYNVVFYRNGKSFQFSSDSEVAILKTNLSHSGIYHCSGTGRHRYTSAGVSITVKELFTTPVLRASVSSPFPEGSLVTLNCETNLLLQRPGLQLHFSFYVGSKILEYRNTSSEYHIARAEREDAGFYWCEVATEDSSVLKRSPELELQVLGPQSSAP

B1: IL6R-BP267 (antibody)
chain 1: QVQLQESGPGLVKPSETLSLTCAVSGHSISHDHAWSWVRQPPGEGLEWIGFISYSGITNYNPSLQGRVTISRDNSKNTLYLQMNSLRAEDTAVYYCARSLARTTAMDYWGEGTLVTVSSASTKGPSVFPLAPSSKSTSGGTAALGCLVKDYFPEPVTVSWNSGALTSGVHTFPAVLQSSGLYSLSSVVTVPSSSLGTQTYICNVNHKPSNTKVDKKVEPKSCDKTHTCPPCPAPDLLGDDSVFLFPPKPKDTLMISRTPEVTCVVVDVSEEDGEVKFNWYVDGVEVHNAKTKPREEQYNSTYRVVSVLTVLHQDWLNGKEYKCKVSNKALPAPIEKTISKAKGQPREPQVYTLPPSRDELTKNQVSLTCLVKGFYPSDIAVEWESNGQPENNYKTTPPVLDSDGSFFLYSKLTVDKSRWQQGNVFSCSVMHEALHNHYTQESLSLSP
chain 2: not shown
Kd [1]: 4 nM

B2: IL6R-BP456 (antibody)
chain 1: QVQLQESGPGLVKPSETLSLTCAVSGHSISHDHAWSWVRQPPGEGLEWIGFISYSGITNYNPSLQGRVTISRDNSKNTLYLQMNSLRAEDTAVYYCARSLARTTAMDYWGEGTLVTVSSASTKGPSVFPLAPSSKSTSGGTAALGCLVKDYFPEPVTVSWNSGALTSGVHTFPAVLQSSGLYSLSSVVTVPSSSLGTQTYICNVNHKPSNTKVDKKVEPKSCDKTHTCPPCPAPDLLGDDSVFLFPPKPKDTLMISRTPEVTCVVVDVAEEDGEVKFNWYVDGVEVHNAKTKPREEQYNSTYRVVSVLTVLHQDWLNGKEYKCKVSNKALPRPIEKTISKAKGQPREPQVYTLPPSRDELTKNQVSLTCLVKGFYPSDIAVEWESNGQPENNYKTTPMVLDSDGSFFLYSKLTVDKSRWQQGNVFSCSVMHEALHNHYTQESLSLSP
chain 2: not shown
Kd [2]: 0.6 nM

B3: IL6R-BP455 (antibody)
chain 1: QVQLQESGPGLVKPSETLSLTCAVSGHSISHDHAWSWVRQPPGEGLEWIGFISYSGITNYNPSLQGRVTISRDNSKNTLYLQMNSLRAEDTAVYYCARSLARTTAMDYWGEGTLVTVSSASTKGPSVFPLAPSSKSTSGGTAALGCLVKDYFPEPVTVSWNSGALTSGVHTFPAVLQSSGLYSLSSVVTVPSSSLGTQTYICNVNHKPSNTKVDKKVEPKSCDKTHTCPPCPAPDLLGDDSVFLFPPKPKDTLMISRTPEVTCVVVDVAEEDGEVKFNWYVDGVEVHNAKTKPREEQYNSTYRVVSVLTVLHQDWLNGKEYKCKVSNKALPRPIEKTISKAKGQPREPQVYTLPPSRDELTKNQVSLTCLVKGFYPSDIAVEWESNGQPENNYKTTPLVLDSDGSFFLYSKLTVDKSRWQQGNVFSCSVMHEALHNHYTQESLSLSP
chain 2: not shown
Kd [3]: 4 nM

B4: IL6R-BP447 (antibody)
chain 1: QVQLQESGPGLVKPSETLSLTCAVSGHSISHDHAWSWVRQPPGEGLEWIGFISYSGITNYNPSLQGRVTISRDNSKNTLYLQMNSLRAEDTAVYYCARSLARTTAMDYWGEGTLVTVSSASTKGPSVFPLAPSSKSTSGGTAALGCLVKDYFPEPVTVSWNSGALTSGVHTFPAVLQSSGLYSLSSVVTVPSSSLGTQTYICNVNHKPSNTKVDKKVEPKSCDKTHTCPPCPAPDLLGDDSVFLFPPKPKDTLMISRTPEVTCVVVDVAEEDGEVKFNWYVDGVEVHNAKTKPREEQYNSTYRVVSVLTVLHQDWLNGKEYKCKVSNKALPRPIEKTISKAKGQPREPQVYTLPPSRDELTKNQVSLTCLVKGFYPSDIAVEWESNGQPENNYKTTPAVLDSDGSFFLYSKLTVDKSRWQQGNVFSCSVMHEALHNHYTQESLSLSP
chain 2: not shown
Kd [2]: 0.9 nM

B5: IL6R-BP367 (antibody)
chain 1: QVQLQESGPGLVKPSETLSLTCAVSGHSISHDHAWSWVRQPPGEGLEWIGFISYSGITNYNPSLQGRVTISRDNSKNTLYLQMNSLRAEDTAVYYCARSLARTTAMDYWGEGTLVTVSSASTKGPSVFPLAPSSKSTSGGTAALGCLVKDYFPEPVTVSWNSGALTSGVHTFPAVLQSSGLYSLSSVVTVPSSSLGTQTYICNVNHKPSNTKVDKKVEPKSCDKTHTCPPCPAPDLLGDDSVFLFPPKPKDTLMISRTPEVTCVVVDVSEDDGEVKFNWYVDGVEVHNAKTKPREEQYNSTYRVVSVLTVLHQDWLNGKEYKCKVSNKALPAPIEKTISKAKGQPREPQVYTLPPSRDELTKNQVSLTCLVKGFYPSDIAVEWESNGQPENNYKTTPPVLDSDGSFFLYSKLTVDKSRWQQGNVFSCSVMHEALHNHYTQESLSLSP
chain 2: not shown
Kd [4]: 100 nM

B6: IL6R-BP350 (antibody)
chain 1: QVQLQESGPGLVKPSETLSLTCAVSGHSISHDHAWSWVRQPPGEGLEWIGFISYSGITNYNPSLQGRVTISRDNSKNTLYLQMNSLRAEDTAVYYCARSLARTTAMDYWGEGTLVTVSSASTKGPSVFPLAPSSKSTSGGTAALGCLVKDYFPEPVTVSWNSGALTSGVHTFPAVLQSSGLYSLSSVVTVPSSSLGTQTYICNVNHKPSNTKVDKKVEPKSCDKTHTCPPCPAPDLLGDDSVFLFPPKPKDTLMISRTPEVTCVVVDVEEEDGEVKFNWYVDGVEVHNAKTKPREEQYNSTYRVVSVLTVLHQDWLNGKEYKCKVSNKALPAPIEKTISKAKGQPREPQVYTLPPSRDELTKNQVSLTCLVKGFYPSDIAVEWESNGQPENNYKTTPPVLDSDGSFFLYSKLTVDKSRWQQGNVFSCSVMHEALHNHYTQESLSLSP
chain 2: not shown
Kd [4]: 100 nM

B7: IL6R-BP464 (antibody)
chain 1: QVQLQESGPGLVKPSETLSLTCAVSGHSISHDHAWSWVRQPPGEGLEWIGFISYSGITNYNPSLQGRVTISRDNSKNTLYLQMNSLRAEDTAVYYCARSLARTTAMDYWGEGTLVTVSSASTKGPSVFPLAPSSKSTSGGTAALGCLVKDYFPEPVTVSWNSGALTSGVHTFPAVLQSSGLYSLSSVVTVPSSSLGTQTYICNVNHKPSNTKVDKKVEPKSCDKTHTCPPCPAPDLLGDDSVFLFPPKPKDTLMISRTPEVTCVVVDVAEEDGEVKFNWYVDGVEVHNAKTKPREEQYNSTYRVVSVLTVLHQDWLNGKEYKCKVSNKALPRPIEKTISKAKGQPREPQVYTLPPSRDELTKNQVSLTCLVKGFYPSDIAVEWESNGQPENNYKTTPYVLDSDGSFFLYSKLTVDKSRWQQGNVFSCSVMHEALHNHYTQESLSLSP
chain 2: not shown
Kd [3]: 4 nM

B8: VH3/L(WT)-mIgG1 (antibody)
chain 1: QVQLQESGPGLVKPSETLSLTCAVSGHSISHDHAWSWVRQPPGEGLEWIGFISYSGITNYNPSLQGRVTISRDNSKNTLYLQMNSLRAEDTAVYYCARSLARTTAMDYWGEGTLVTVSSAKTTPPSVYPLAPGSAAQTNSMVTLGCLVKGYFPEPVTVTWNSGSLSSGVHTFPAVLQSDLYTLSSSVTVPSSTWPSETVTCNVAHPASSTKVDKKIVPRDCGCKPCICTVPEVSSVFIFPPKPKDVLTITLTPKVTCVVVDISKDDPEVQFSWFVDDVEVHTAQTQPREEQFNSTFRSVSELPIMHQDWLNGKEFKCRVNSAAFPAPIEKTISKTKGRPKAPQVYTIPPPKEQMAKDKVSLTCMITDFFPEDITVEWQWNGQPAENYKNTQPIMDTDGSYFVYSKLNVQKSNWEAGNTFTCSVLHEGLHNHHTEKSLSHSPGK
chain 2: not shown
binding result [5]: no binding
binding result [6]: no binding

B9: VH3/L(WT)-mIgG1-mF44 (antibody)
chain 1: QVQLQESGPGLVKPSETLSLTCAVSGHSISHDHAWSWVRQPPGEGLEWIGFISYSGITNYNPSLQGRVTISRDNSKNTLYLQMNSLRAEDTAVYYCARSLARTTAMDYWGEGTLVTVSSAKTTPPSVYPLAPGSAAQTNSMVTLGCLVKGYFPEPVTVTWNSGSLSSGVHTFPAVLQSDLYTLSSSVTVPSSTWPSETVTCNVAHPASSTKVDKKIVPRDCGCKPCICTVPEVSSVFIFPPKPKDVLTITLTPKVTCVVVDISKDDPEVQFSWFVDDVEVHTAQTQPREEQFNSTFRSVSELPIMHQDWLNGKEFKCRVNSADFPAPIEKTISKTKGRPKAPQVYTIPPPKEQMAKDKVSLTCMITDFFPEDITVEWQWNGQPAENYKNTQPIMDTDGSYFVYSKLNVQKSNWEAGNTFTCSVLHEGLHNHHTEKSLSHSPGK
chain 2: not shown
binding result [5]: no binding
binding result [6]: no binding

B10: VH3/L(WT)-mIgG1-mF46 (antibody)
chain 1: QVQLQESGPGLVKPSETLSLTCAVSGHSISHDHAWSWVRQPPGEGLEWIGFISYSGITNYNPSLQGRVTISRDNSKNTLYLQMNSLRAEDTAVYYCARSLARTTAMDYWGEGTLVTVSSAKTTPPSVYPLAPGSAAQTNSMVTLGCLVKGYFPEPVTVTWNSGSLSSGVHTFPAVLQSDLYTLSSSVTVPSSTWPSETVTCNVAHPASSTKVDKKIVPRDCGCKPCICTVPEVSDVFIFPPKPKDVLTITLTPKVTCVVVDISKDDPEVQFSWFVDDVEVHTAQTQPREEQFNSTFRSVSELPIMHQDWLNGKEFKCRVNSADFPAPIEKTISKTKGRPKAPQVYTIPPPKEQMAKDKVSLTCMITDFFPEDITVEWQWNGQPAENYKNTQPIMDTDGSYFVYSKLNVQKSNWEAGNTFTCSVLHEGLHNHHTEKSLSHSPGK
chain 2: not shown
binding result [5]: no binding
binding result [6]: no binding
